Laboratory results taken from the DeepSol protein solubility set.

test: soluble on expression in E. coli; label from the status in PepcDB or PDB records

| Sequence | soluble on expression in E. coli |
| --- | --- |
| MAAESATTETVEKSGNEESTVEVKVNGEAQNPPQESAKPAESVEDDDEPAPAKKRSGGDSEEKEDEAAEDGPEDGEEKSNLDDDQNVENPAYIPKTGRFYMHDDNRRGDVNNSQVQDDDSDDRRNLKKSRADCDWKHDRFDEKFQRPKTKKQIVTKYGFDIRHKDGTPIQDGEEIDAPAPESTEEESSDARQVSRQQKDRRVSSTTRGKVGKSGTSRRPMKQREREDTVDESKGEEEEDQGVRPAQKRQVKQQEKPRKQKPAAPPSSEENEEDEDDGAIRRGQRRAVPLRRGTTSGPPSRLRGRMSHPMGPPRRSSGAPPSSASNRRPVESSSRGPPPPPSSSSRRDYSHQGDRNDDRFENHRRGVIRGASRGGGTVTRGTGGYGRTGAIRGGVRGSGAPRYGVRRTDTSEQSEGYQRGGSGTDYSSPRPNHQSDRSYQASSTNFRGGSHPHPSANVYPSSRGGYSSNNADYASRGGGGYHGPPQHHNNHHNHQQKRFVQGPPPPMVAVGVVPGNVVPPPQMTRGSTHGGNQHNGGGGGGSGGQQRIRQPTDVVYFDPQQQQGTRQLPPRSKKVIPIVDPKDHQ | not soluble |
| MAAFNAKYLIDLLKRIRSGEESIDSPDALELLYIPLPLAHELGVINSMDGLDPYDEMEISCKSILKKLDEKKKTEEKHRAKQERQAQKKGAKEQAKKEKAELKKEAKELLKKEKAEERKKESLKRKLSEKSEPAAKKAKASEDQENRGATKKKITPPNRKHTALFKKCMAMRVKNFAY | not soluble |
| MAAGQNGHEEWVGSAYLFVESSLDKVVLSDAYAHPQQKVAVYRALQAALAESGGSPDVLQMLKIHRSDPQLIVQLRFCGRQPCGRFLRAYREGALRAALQRSLAAALAQHSVPLQLELRAGAERLDALLADEERCLSCILAQQPDRLRDEELAELEDALRNLKCGSGARGGDGEVASAP | soluble |
| MAALFQEASSCPVCSDYLEKPMSLECGCTVCLKCINSLQKEPHGEDLLCCCCSMVSQRNKIRPNRQLERLVSHIKELEPKMKKILQMNPRMRKFQVDMTLDADTANNFLLISDDLRSVRSGLITQNRQDLAERFDVSVCILGSPRFTCGRHYWEVDVGTSTEWDLGVCRESVHCKGKIQLTTELGFWTVSLRDGSRLSASTVPLTFLLVDRKLQRVGIFLDMGMQNVSFFDAESGSHVYTFRSVSAEEPLRPFLAPSIPPNGDQGVLSICPLMNSGTTDAPVRPGEAK | soluble |
| MAAQRRSLLQSEQQPSWTDDLPLCHLSGVGSASNRSYSADGKGTESHPPEDSWLKFRSENNCFLYGVFNGYDGNRVTNFVAQRLSAELLLGQLNAEHAEADVRRVLLQAFDVVERSFLESIDDALAEKASLQSQLPEGVPQHQLPPQYQKILERLKTLEREISGGAMAVVAVLLNNKLYVANVGTNRALLCKSTVDGLQVTQLNVDHTTENEDELFRLSQLGLDAGKIKQVGIICGQESTRRIGDYKVKYGYTDIDLLSAAKSKPIIAEPEIHGAQPLDGVTGFLVLMSEGLYKALEAAHGPGQANQEIAAMIDTEFAKQTSLDAVAQAVVDRVKRIHSDTFASGGERARFCPRHEDMTLLVRNFGYPLGEMSQPTPSPAPAAGGRVYPVSVPYSSAQSTS | soluble |
| MACKLLFWKLKDYQNILLYSPLGHELDIRPLIFRLRQKNKCVWLPKSIKKGAHFSKESFTIAPFRLPLRRLGWFDEPSLSRYYKQELDCIVVPILGMDTSFRRVGFGLGMYDRSLPQLLKRRLKRPLIVFVSRELAIANGVLTNAYDIEADLYMNARIVVKNNKRKHYEQRVNLHFIRSLGSVFDYRSSHVLCDEKDLLRLEHHHHHH | not soluble |
| MADDFKTAQMNNPHLRNYVEKFKKTYMKVPEFVPSLSRDFKEIKYPNIIYPIGDPIFIHLYGTPNLKTRYIAIEPKLNGSEERKKYFDILDKILEYAPYSDIPENDEEFGKVVTKLFDMVAK | not soluble |
| MADDPLYLDRTGEWAGLWWLPEIPDEKVPGFLRYDAECGLLLSLIGAFEDRVTSNPSPGVTAYHEGTRTWEVIHGVAEQREITLFDTIPISSKRTIGARVESPAKQTVTASVAIIGAHVRSEGDPQFAGVEVSVEDLGRWAGSSVFEGLLGAPDGNFDGTGSISVKPVEAQSVLVGGTEYRLVHTHTLPYFDQRKSETVGRMRDTVSIRIVPASPFSLNAALHEASLVQDLISLATHQSAGVIWLRVEVARSESQLPDGRTSPRRRADVLYSPVALGKHDAKPVDHHRMFFTCNSLPFEEVLPRWCETHVRLQAATNMILGLRYAPARFVENNLLTAVGAAEALHRNLRIGEKPFSKAEFTAMRGAMLDQVPSEHRERFKAAIRNDPTLRDRLHALAARPDEEAIGQLIPDVDYWAKRTTRARNDLAHEGRTPNHSFEELVAIVEVTTAVVILNVLQELGLSAERQREIVLTHPKLRHTVGLSREWLVPSKSD | not soluble |
| MADEERLKEFKEANKIVFDPNTRQVWENQNRDGTKPATTFQSEEDIKRAAPESEKDTSATSGIVPTLQNIVATVTLGCRLDLKTVALHARNAEYNPKRFAAVIMRIREPKTTALIFASGKMVVTGAKSEDDSKLASRKYARIIQKIGFAAKFTDFKIQNIVGSCDVKFPIRLEGLAFSHGTFSSYEPELFPGLIYRMVKPKIVLLIFVSGKIVLTGAKQREEIYQAFEAIYPVLSEFRKM | soluble |
| MADESETAVKPPAPPLPQMMEGNGNGHEHCSDCENEEDNSYNRGGLSPANDTGAKKKKKKQKKKKEKGSETDSAQDQPVKMNSLPAERIQEIQKAIELFSVGQGPAKTMEEASKRSYQFWDTQPVPKLGEVVNTHGPVEPDKDNIRQEPYTLPQGFTWDALDLGDRGVLKELYTLLNENYVEDDDNMFRFDYSPEFLLWALRPPGWLPQWHCGVRVVSSRKLVGFISAIPANIHIYDTEKKMVEINFLCVHKKLRSKRVAPVLIREITRRVHLEGIFQAVYTAGVVLPKPVGTCRYWHRSLNPRKLIEVKFSHLSRNMTMQRTMKLYRLPETPKTAGLRPMETKDIPVVHQLLTRYLKQFHLTPVMSQEEVEHWFYPQENIIDTFVVENANGEVTDFLSFYTLPSTIMNHPTHKSLKAAYSFYNVHTQTPLLDLMSDALVLAKMKGFDVFNALDLMENKTFLEKLKFGIGDGNLQYYLYNWKCPSMGAEKVGIVLQ | soluble |
| MADGEAVISTVNNVEEVHGQLFEVAPRYVNLSYIGEGAYGMVASALDTITRDRVAIKKISPFEHQTFCQRTLREIKILNRFKHENIINIQEIIRSETVDSLKDIYIVQCLMETDLYKLLKTQKLSNDHVCYFLYQILRGLKYIHSANVLHRDLKPSNLLLNTTCDLKICDFGLARVTDPQTDHTGFLTEYVATRWYRAPEIMLNSKGYTKSIDVWSVGCILAEMLSNRPLFPGKHYLDQLNLILAVVGSPSNADLQCIINDKARSYLISLPHKPKQPWARLYPGADPRALDLLDKMLTFNPHNRIDIEQALAHPYLEQYYDPGDEPVCEEPFTLEMEFDDLPKEKLKELIWEEAEAHHRRMEAEAAARNNGGQNPV | not soluble |
| MADKENATKIEKMPNSETMKGISSEDVPFEEDIIRNPTSVNCWQRYIDHKLQNKSPAKQMFLIYERALAVFERSYKLWYHYLKYRESTIVNKCPTDNSWRALCDTYERCLMRLHKMPRIWICYCEVMIKRGLITETRRVFDRALRSLPVTQHMRIWTLYIGFLTSHDLPETTIRVYRRYLKMNPKAREDYVEYLIERDQIDEAAKELTTLVNQDQNVSEKGRTAHQLWTQLCDLISKNPVKIFSLNVDAIIRQGIYRYTDQVGFLWCSLADYYIRSAEFERARDVYEEAIAKVSTVRDFAQVYDAYAAFEEREVSIMMQEVEQSGDPEEEVDLEWMFQRYQHLMERKNELMNSVLLRQNPHNVGEWLNRVNIYEGNYNKQIETFKEAVKSVNPKIQVGKVRDLWIGLAKLYEDNGDLDAARKTFETAVISQFGGVSELANVWCAYAEMEMKHKRAKAALTVMQRACVVPKPGDYENMQSVQARVHRSPILWAMYADYEECCGTVESCRKVYDKMIELRVASPQMIMNYAMFLEENEYFELAFQAYEKGIALFKWPGVFDIWNTYLVKFIKRYGGKKLERARDLFEQCLENCPPTHAKYIFLLYAKLEEEHGLARHALSIYNRACSGVDRADMHSMYNIYIKKVQEMYGIAQCRPIFERAISELPEDKSRAMSLRYAQLETTVGEIDRARAIYAHAAEISDPKVHVKFWDTWKNFEVAHGNEATVRDMLRVRRSVEASYNVNVTLTSVQMRVDAERKAQETTTSSNPMDSLDQQQQQPSDGAGSITQVSMNKGNISFVRGAGKTVQQNTTENPDEIDLDEDDDDEEDDGGDADISVKVVPAQIFGNLKLAEEEEEA | soluble |
| MADLRKAARGRECQVRIPGVCNGNPETSVLAHIRLTGLCGTGTKPPDLIATIACSACHDEIDRRTHFVDAGYAKECALEGMARTQVIWLKEGVIKA | soluble |
| MADSVLKEVNCGRPEKIPKLDKACEGSKSSWKHLKLGNVEDDEYLRQYCLFHYEFHKSEGFTVDWEKYDYMFHIRPLENSPPISDIRTNADVIRDVTLFAIEKHNEAHGSKLVFVEHVSANFKFANGLLCWLTFWATDMASSAPTSQIYQVELWRRGKQFEIPIFRVKPKDEEMDDVEVKPPSPMPYDDYDKPPVVFVRAAPEDGVPFVFDRTGALYDLYRSGL | soluble |
| MADTGEKDTETTASGTDGHSKEALAVISMLHECGIQEFDPRVVSMLMDVQYAVTSKILQMSSGLSRHAEKAQIEAEDVQTAADMLGVLTTNAPDREKILQLANDKNQQPLPQIRHNYGLKLPNDRFCQLQQNFVYKADDSYQPMEMQQVTHQPHIIEPPTQVLRPEHVQNMLKRRAPDDDFDS | not soluble |
| MADVFEFELEGHESQASPQRHAYHYDNCTEIMEDDHMYSNVADGQISAPPPSSSYMEDPMMESIQLCASAINPPNVRVGPEDFQLLKVLGKGGYGKVFQVRKTTGSDNGQIFAMKVLQKATIVRNQKDTAHTKAERNILEAVKSPFICDLLYAFQTGGKLYLILEYLSGGELFMHLEREGMFMENVAKFYLSEIVVSLEHLHQQGIIYRDLKPENILLDAYGHVKLTDFGLCKEEIEGDQKTHTFCGTIEYMAPEILMRCGHGKAVDWWSLGALMFDMLTGGPPFTAENRRKTIDKILKGRLTLPAYLSNEARDLIKKLLKRHVDTRLGAGLSDAEEIKSHAFFKTTDWNLVYARQLEAPFKPNIENDEDTSLFDARFTKMTPVDSPCETNFSLNGDNPFVGFTYVAPSVLEMMNKGGHGGISVAHLASSMSRAGAAKSPRKPGDPETASILHGGHSNLFGHGPNSEAPQAFGYGIGSQMTTTTAGGAGIQQPYQSFSGGYPEDDAMDTSTPRASESRETTTGNGSTTTTRPSNVGSSASTPIPLPKRVIKLPHTHTSTQNAQYSFMLLLLNVSLFFHFF | not soluble |
| MAEAASCARKGTKYAEGTQPFTVLIEGNIGSGKTTYLNHFEKYKNDICLLTEPVEKWRNVNGVNLLELMYKDPKKWAMPFQSYVTLTMLQSHTAPTNKKLKIMERSIFSARYCFVENMRRNGSLEQGMYNTLEEWYKFIEESIHVQADLIIYLRTSPEVAYERIRQRARSEESCVPLKYLQELHELHEDWLIHQRRPQSCKVLVLDADLNLENIGTEYQRSESSIFDAISSNQQPSPVLVSPSKRQRVAR | soluble |
| MAEAATPGTTATTSGAGAAAATAAAASPTPIPTVTAPSLGAGGGGGGSDGSGGGWTKQVTCRYFMHGVCKEGDNCRYSHDLSDSPYSVVCKYFQRGYCIYGDRCRYEHSKPLKQEEATATELTTKSSLAASSSLSSIVGPLVEMNTGEAESRNSNFATVGAGSEDWVNAIEFVPGQPYCGRTAPSCTEAPLQGSVTKEESEKEQTAVETKKQLCPYAAVGECRYGENCVYLHGDSCDMCGLQLLHPMDAAQRSQHIKSCIEAHEKDMELSFAVQRSKDMVCGICMEVVYEKANPSERRFGILSNCNHTYCLKCIRKWRSAKQFESKIIKSCPECRITSNFVIPSEYWVEEKEEKQKLILKYKEAMSNKACRYFDEGRGSCPFGGNCFYKHAYPDGRREEPQRQKVGTSSRYRAQRRNHFWELIEERENSNPFDNDEEEVVTFELGEMLLMLLAAGGDDELTDSEDEWDLFHDELEDFYDLDL | soluble |
